Experimental data: IntAct's records for PubMed 10064581

B1: Circadian clock oscillator protein KaiA (Synechococcus elongatus (strain PCC 7942)), Q79PF6 (parent)
chain: MLSQIAICIWVESTAILQDCQRALSADRYQLQVCESGEMLLEYAQTHRDQIDCLILVAANPSFRAVVQQLCFEGVVVPAIVVGDRDSEDPDEPAKEQLYHSAELHLGIHQLEQLPYQVDAALAEFLRLAPVETMADHIMLMGANHDPELSSQQRDLAQRLQERLGYLGVYYKRDPDRFLRNLPAYESQKLHQAMQTSYREIVLSYFSPNSNLNQSIDNFVNMAFFADVPVTKVVEIHMELMDEFAKKLRVEGRSEDILLDYRLTLIDVIAHLCEMYRRSIPRET
partner: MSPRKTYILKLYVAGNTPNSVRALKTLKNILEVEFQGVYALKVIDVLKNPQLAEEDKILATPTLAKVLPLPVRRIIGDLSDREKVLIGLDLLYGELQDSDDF

Variants of: B1
Conditions: with kaib_syne7 kaiB

Row | effect of a mutation on the interaction | Variant
1 | increasing interaction | E103K
